Here are results for 1 substance from patent US20060177432A1.

Targets include chymotrypsin; human α-thrombin (human) (UniProt P00734); neuropsin.
Common to all, as to assay: cell-based or functional assay

In the case of “6xHis-PEBP (recombinant mouse PEBP with a 6xHis-tag at the N-terminus) (from UniProt P70296 2-187)”, the inhibition of amidolytic activity (chromogenic substrate, 405 nm) in the assay with chymotrypsin is 25%; with human α-thrombin (human), 55%; with neuropsin it was 70%.
